The supplement of paper PMC10065799, “High-throughput profiling of sequence recognition by tyrosine kinases and SH2 domains using bacterial peptide display” (eLife, 2023)
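Note: 11-residue human phosphosite peptides and single-mutation variants displayed on the E. coli surface, counted by deep sequencing, each peptide's frequency after selection divided by its frequency in the unselected input library; frequency after pTyr selection over input frequency; kinase dosed for 20-30% of maximal phosphorylation in three min.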

The sequences below were run against Fyn (UniProt P06241) (assay: phosphorylation enrichment, bacterial display (enrichment ratio); higher = better substrate or ligand; peptides without Tyr show the background).
Chain of Fyn (P06241 whole entry, looked up): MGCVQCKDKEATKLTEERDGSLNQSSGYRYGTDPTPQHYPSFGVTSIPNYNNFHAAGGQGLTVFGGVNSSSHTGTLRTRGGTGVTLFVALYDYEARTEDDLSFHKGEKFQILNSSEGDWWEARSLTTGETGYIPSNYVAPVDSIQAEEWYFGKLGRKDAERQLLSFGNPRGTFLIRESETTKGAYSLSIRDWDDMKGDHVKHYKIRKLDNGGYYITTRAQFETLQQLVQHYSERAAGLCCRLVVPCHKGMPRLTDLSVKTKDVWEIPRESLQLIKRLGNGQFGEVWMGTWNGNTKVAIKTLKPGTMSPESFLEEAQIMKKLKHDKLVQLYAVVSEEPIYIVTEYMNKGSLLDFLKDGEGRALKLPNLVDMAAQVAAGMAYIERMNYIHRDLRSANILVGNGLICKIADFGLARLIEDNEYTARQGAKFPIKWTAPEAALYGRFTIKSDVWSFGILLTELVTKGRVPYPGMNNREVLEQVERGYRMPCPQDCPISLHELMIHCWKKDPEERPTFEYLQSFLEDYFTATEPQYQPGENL
Work on CQKRKYIEIDS [SDAD1_Y580_S575C] yielded a phosphorylation enrichment of 0.485. In the case of GRLFAYPDTHR [CAT_Y358], the phosphorylation enrichment is reported as 0.421. With PAGSGYPAFLG [ATP6V1A_Y374_D371G_YF] the phosphorylation enrichment was 0.478. Sequence QKMFDYLKEKK [RYR2_Y3780_L3778F] has a phosphorylation enrichment of 0.445. Work on CTTIHYNYMCN [TP53_Y234] yielded a phosphorylation enrichment of 0.453. For TKQLTYEEQFL [PIK3C3_Y310_D314Y_YF], the phosphorylation enrichment was 0.509. For MPLTEYLKQIK [CNGB3_Y200_R203Q], the phosphorylation enrichment was 0.448. For LVQAEYWHDPI [PPT1_Y185], the phosphorylation enrichment was 0.58. Sequence AFLLLCFNDTH [BMP15_Y235_Y235C] has a phosphorylation enrichment of 0.563. Sequence RGGWVYVLHPT [TRMT61A_Y67] has a phosphorylation enrichment of 1.25. With LGSVVYAQSKE [KCNQ2_Y226_H228Q] the phosphorylation enrichment was 1.08. With NAPNSYGRRPT [CDKN2A_Y44_I49T] the phosphorylation enrichment was 0.402. Sequence EASEQYLTKAS [NRCAM_Y739] has a phosphorylation enrichment of 0.496. FLAVGYHMPHI [IDS_Y225_K227M] gave a phosphorylation enrichment of 0.395. PVQAVYQKVVA [HBB_Y131_A130V] gave a phosphorylation enrichment of 0.677. Work on RAFRRYLLKQK [SCN2A_Y1919_YF] yielded a phosphorylation enrichment of 0.696. CTLTHYKSAVK [ASNS_Y555_R550C] gave a phosphorylation enrichment of 0.387. In the case of RLLRGYRQDAF [HLA-A_Y137_F133L_YF], the phosphorylation enrichment is reported as 0.678. FDNPIYQKTTE [LDLR_Y828_V827I] was tested, and the phosphorylation enrichment was 1.1. Work on AGTILYHAHLG [ASS1_Y291_D296G] yielded a phosphorylation enrichment of 0.564. With FFLGKYLQEVL [KLB_Y910_YF] the phosphorylation enrichment was 0.342. Sequence EPSVDCCVVKI [CAD_Y735_Y735C] has a phosphorylation enrichment of 0.336. Sequence SLIDGYFRLTA [JAK2_Y372_YF] has a phosphorylation enrichment of 0.493. Work on AAAAVYTFLPD [MYORG_Y36_M35V] yielded a phosphorylation enrichment of 8.32. SSSNPYSTVTV [ACTN2_Y599_M604V] gave a phosphorylation enrichment of 0.733. CLSHCYFSQIR [MCM3AP_Y873_L870S] was tested, and the phosphorylation enrichment was 0.354. LDVGEYCVPRG [BEX1_Y43_A40V] showed a phosphorylation enrichment of 1.09. TEIGQYGNGLK [MORC2_Y100_Q96E] gave a phosphorylation enrichment of 0.393. In the case of AATTAYSKPKR [MAP3K7_Y405], the phosphorylation enrichment is reported as 0.281. STGWSYAGVAV [KLHL3_Y577_R575W] showed a phosphorylation enrichment of 0.416. TLMNAYSSRSH [KIF11_Y231] was tested, and the phosphorylation enrichment was 0.517. VHSGTYQVMVR [MYBPC3_Y1043_T1046M] was tested, and the phosphorylation enrichment was 0.539. For CTTIHYNFMCD [TP53_Y234_N239D_YF], the phosphorylation enrichment was 0.442.

The sequences below were run against Hck (UniProt P08631) in the same assay as above.
Chain of Hck (P08631 whole entry, looked up): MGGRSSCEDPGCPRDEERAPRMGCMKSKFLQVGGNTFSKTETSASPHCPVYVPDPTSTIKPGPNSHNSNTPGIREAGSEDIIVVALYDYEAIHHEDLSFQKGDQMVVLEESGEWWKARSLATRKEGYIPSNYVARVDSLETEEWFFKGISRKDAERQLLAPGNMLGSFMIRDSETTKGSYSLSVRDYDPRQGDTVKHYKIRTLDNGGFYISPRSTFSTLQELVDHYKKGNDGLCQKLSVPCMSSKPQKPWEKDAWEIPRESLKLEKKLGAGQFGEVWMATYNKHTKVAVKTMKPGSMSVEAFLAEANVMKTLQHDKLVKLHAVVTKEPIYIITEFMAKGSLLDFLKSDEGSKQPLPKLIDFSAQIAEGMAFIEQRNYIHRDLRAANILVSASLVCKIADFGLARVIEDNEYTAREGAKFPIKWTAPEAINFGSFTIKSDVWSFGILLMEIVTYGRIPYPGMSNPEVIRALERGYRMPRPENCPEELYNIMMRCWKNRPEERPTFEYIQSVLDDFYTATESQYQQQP
CQKRKYIEIDS [SDAD1_Y580_S575C] was tested, and the phosphorylation enrichment was 0.48. GRLFAYPDTHR [CAT_Y358] was tested, and the phosphorylation enrichment was 0.397. For PAGSGYPAFLG [ATP6V1A_Y374_D371G_YF], the phosphorylation enrichment was 0.626. QKMFDYLKEKK [RYR2_Y3780_L3778F] gave a phosphorylation enrichment of 0.471. CTTIHYNYMCN [TP53_Y234] showed a phosphorylation enrichment of 0.482. TKQLTYEEQFL [PIK3C3_Y310_D314Y_YF] was tested, and the phosphorylation enrichment was 0.419. Sequence MPLTEYLKQIK [CNGB3_Y200_R203Q] has a phosphorylation enrichment of 0.514. LVQAEYWHDPI [PPT1_Y185] showed a phosphorylation enrichment of 0.593. In the case of AFLLLCFNDTH [BMP15_Y235_Y235C], the phosphorylation enrichment is reported as 0.561. In the case of RGGWVYVLHPT [TRMT61A_Y67], the phosphorylation enrichment is reported as 0.909. LGSVVYAQSKE [KCNQ2_Y226_H228Q] gave a phosphorylation enrichment of 1.29. In the case of NAPNSYGRRPT [CDKN2A_Y44_I49T], the phosphorylation enrichment is reported as 0.424. For EASEQYLTKAS [NRCAM_Y739], the phosphorylation enrichment was 0.43. Work on FLAVGYHMPHI [IDS_Y225_K227M] yielded a phosphorylation enrichment of 0.51. In the case of PVQAVYQKVVA [HBB_Y131_A130V], the phosphorylation enrichment is reported as 1.75. For RAFRRYLLKQK [SCN2A_Y1919_YF], the phosphorylation enrichment was 0.63. Work on CTLTHYKSAVK [ASNS_Y555_R550C] yielded a phosphorylation enrichment of 0.518. RLLRGYRQDAF [HLA-A_Y137_F133L_YF] was tested, and the phosphorylation enrichment was 0.604. Sequence FDNPIYQKTTE [LDLR_Y828_V827I] has a phosphorylation enrichment of 2.76. With AGTILYHAHLG [ASS1_Y291_D296G] the phosphorylation enrichment was 0.61. FFLGKYLQEVL [KLB_Y910_YF] gave a phosphorylation enrichment of 0.42. For EPSVDCCVVKI [CAD_Y735_Y735C], the phosphorylation enrichment was 0.371. Work on SLIDGYFRLTA [JAK2_Y372_YF] yielded a phosphorylation enrichment of 0.583. Sequence AAAAVYTFLPD [MYORG_Y36_M35V] has a phosphorylation enrichment of 6.52. In the case of SSSNPYSTVTV [ACTN2_Y599_M604V], the phosphorylation enrichment is reported as 0.82. Work on CLSHCYFSQIR [MCM3AP_Y873_L870S] yielded a phosphorylation enrichment of 0.363. LDVGEYCVPRG [BEX1_Y43_A40V] showed a phosphorylation enrichment of 0.853. TEIGQYGNGLK [MORC2_Y100_Q96E] showed a phosphorylation enrichment of 0.448. With AATTAYSKPKR [MAP3K7_Y405] the phosphorylation enrichment was 0.384. In the case of STGWSYAGVAV [KLHL3_Y577_R575W], the phosphorylation enrichment is reported as 0.581. Sequence TLMNAYSSRSH [KIF11_Y231] has a phosphorylation enrichment of 0.516. Sequence VHSGTYQVMVR [MYBPC3_Y1043_T1046M] has a phosphorylation enrichment of 1.98. CTTIHYNFMCD [TP53_Y234_N239D_YF] was tested, and the phosphorylation enrichment was 0.481.

What follows are sequences tested against Jak2 (UniProt O60674) in the same assay as above.
Chain of Jak2 (O60674 whole entry, looked up): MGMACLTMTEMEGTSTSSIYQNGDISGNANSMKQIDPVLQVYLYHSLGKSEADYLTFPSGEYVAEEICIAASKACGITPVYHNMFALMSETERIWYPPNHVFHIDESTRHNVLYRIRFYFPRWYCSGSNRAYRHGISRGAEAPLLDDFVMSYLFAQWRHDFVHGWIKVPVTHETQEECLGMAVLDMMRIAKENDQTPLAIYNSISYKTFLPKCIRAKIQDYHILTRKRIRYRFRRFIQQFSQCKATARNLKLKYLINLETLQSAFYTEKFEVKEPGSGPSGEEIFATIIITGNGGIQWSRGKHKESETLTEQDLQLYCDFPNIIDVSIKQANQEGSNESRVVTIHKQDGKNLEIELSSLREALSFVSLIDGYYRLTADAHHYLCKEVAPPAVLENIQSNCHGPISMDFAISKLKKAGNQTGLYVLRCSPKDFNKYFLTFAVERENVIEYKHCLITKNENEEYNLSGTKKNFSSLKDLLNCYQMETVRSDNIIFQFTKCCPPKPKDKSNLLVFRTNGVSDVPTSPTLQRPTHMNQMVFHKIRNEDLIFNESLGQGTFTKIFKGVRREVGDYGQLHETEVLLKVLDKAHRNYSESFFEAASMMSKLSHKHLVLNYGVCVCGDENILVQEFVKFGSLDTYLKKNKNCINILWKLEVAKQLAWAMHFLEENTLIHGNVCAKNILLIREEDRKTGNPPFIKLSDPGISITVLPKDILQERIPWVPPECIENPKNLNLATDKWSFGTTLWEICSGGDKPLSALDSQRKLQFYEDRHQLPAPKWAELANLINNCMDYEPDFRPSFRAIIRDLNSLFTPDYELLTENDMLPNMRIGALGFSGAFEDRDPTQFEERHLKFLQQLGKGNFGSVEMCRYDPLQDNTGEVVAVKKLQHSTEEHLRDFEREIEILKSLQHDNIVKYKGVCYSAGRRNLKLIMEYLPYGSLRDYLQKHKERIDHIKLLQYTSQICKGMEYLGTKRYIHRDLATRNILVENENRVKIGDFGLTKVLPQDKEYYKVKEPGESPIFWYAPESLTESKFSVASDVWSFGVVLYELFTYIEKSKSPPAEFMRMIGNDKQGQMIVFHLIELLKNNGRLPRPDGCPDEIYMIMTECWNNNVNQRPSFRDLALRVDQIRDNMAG
CQKRKYIEIDS [SDAD1_Y580_S575C] showed a phosphorylation enrichment of 0.616. With GRLFAYPDTHR [CAT_Y358] the phosphorylation enrichment was 0.605. PAGSGYPAFLG [ATP6V1A_Y374_D371G_YF] showed a phosphorylation enrichment of 0.687. Sequence QKMFDYLKEKK [RYR2_Y3780_L3778F] has a phosphorylation enrichment of 0.805. CTTIHYNYMCN [TP53_Y234] gave a phosphorylation enrichment of 0.661. For TKQLTYEEQFL [PIK3C3_Y310_D314Y_YF], the phosphorylation enrichment was 0.861. Sequence MPLTEYLKQIK [CNGB3_Y200_R203Q] has a phosphorylation enrichment of 0.749. With LVQAEYWHDPI [PPT1_Y185] the phosphorylation enrichment was 1.18. AFLLLCFNDTH [BMP15_Y235_Y235C] showed a phosphorylation enrichment of 1.63. With RGGWVYVLHPT [TRMT61A_Y67] the phosphorylation enrichment was 1.2. In the case of LGSVVYAQSKE [KCNQ2_Y226_H228Q], the phosphorylation enrichment is reported as 1.19. NAPNSYGRRPT [CDKN2A_Y44_I49T] was tested, and the phosphorylation enrichment was 1.11. With EASEQYLTKAS [NRCAM_Y739] the phosphorylation enrichment was 0.793. In the case of FLAVGYHMPHI [IDS_Y225_K227M], the phosphorylation enrichment is reported as 0.862. In the case of PVQAVYQKVVA [HBB_Y131_A130V], the phosphorylation enrichment is reported as 0.289. RAFRRYLLKQK [SCN2A_Y1919_YF] was tested, and the phosphorylation enrichment was 0.712. CTLTHYKSAVK [ASNS_Y555_R550C] showed a phosphorylation enrichment of 0.689. In the case of RLLRGYRQDAF [HLA-A_Y137_F133L_YF], the phosphorylation enrichment is reported as 0.854. Sequence FDNPIYQKTTE [LDLR_Y828_V827I] has a phosphorylation enrichment of 0.681. AGTILYHAHLG [ASS1_Y291_D296G] showed a phosphorylation enrichment of 0.816. In the case of FFLGKYLQEVL [KLB_Y910_YF], the phosphorylation enrichment is reported as 0.911. For EPSVDCCVVKI [CAD_Y735_Y735C], the phosphorylation enrichment was 1.01. SLIDGYFRLTA [JAK2_Y372_YF] showed a phosphorylation enrichment of 5.46. AAAAVYTFLPD [MYORG_Y36_M35V] showed a phosphorylation enrichment of 0.979. SSSNPYSTVTV [ACTN2_Y599_M604V] showed a phosphorylation enrichment of 0.383. CLSHCYFSQIR [MCM3AP_Y873_L870S] was tested, and the phosphorylation enrichment was 0.623. With LDVGEYCVPRG [BEX1_Y43_A40V] the phosphorylation enrichment was 1.32. TEIGQYGNGLK [MORC2_Y100_Q96E] gave a phosphorylation enrichment of 0.588. AATTAYSKPKR [MAP3K7_Y405] was tested, and the phosphorylation enrichment was 0.425. Work on STGWSYAGVAV [KLHL3_Y577_R575W] yielded a phosphorylation enrichment of 0.69. TLMNAYSSRSH [KIF11_Y231] showed a phosphorylation enrichment of 1.08. With VHSGTYQVMVR [MYBPC3_Y1043_T1046M] the phosphorylation enrichment was 0.467. CTTIHYNFMCD [TP53_Y234_N239D_YF] showed a phosphorylation enrichment of 1.03.

These sequences were tested against MERTK (UniProt Q12866) in the same assay as above.
Chain of MERTK (Q12866 whole entry, looked up): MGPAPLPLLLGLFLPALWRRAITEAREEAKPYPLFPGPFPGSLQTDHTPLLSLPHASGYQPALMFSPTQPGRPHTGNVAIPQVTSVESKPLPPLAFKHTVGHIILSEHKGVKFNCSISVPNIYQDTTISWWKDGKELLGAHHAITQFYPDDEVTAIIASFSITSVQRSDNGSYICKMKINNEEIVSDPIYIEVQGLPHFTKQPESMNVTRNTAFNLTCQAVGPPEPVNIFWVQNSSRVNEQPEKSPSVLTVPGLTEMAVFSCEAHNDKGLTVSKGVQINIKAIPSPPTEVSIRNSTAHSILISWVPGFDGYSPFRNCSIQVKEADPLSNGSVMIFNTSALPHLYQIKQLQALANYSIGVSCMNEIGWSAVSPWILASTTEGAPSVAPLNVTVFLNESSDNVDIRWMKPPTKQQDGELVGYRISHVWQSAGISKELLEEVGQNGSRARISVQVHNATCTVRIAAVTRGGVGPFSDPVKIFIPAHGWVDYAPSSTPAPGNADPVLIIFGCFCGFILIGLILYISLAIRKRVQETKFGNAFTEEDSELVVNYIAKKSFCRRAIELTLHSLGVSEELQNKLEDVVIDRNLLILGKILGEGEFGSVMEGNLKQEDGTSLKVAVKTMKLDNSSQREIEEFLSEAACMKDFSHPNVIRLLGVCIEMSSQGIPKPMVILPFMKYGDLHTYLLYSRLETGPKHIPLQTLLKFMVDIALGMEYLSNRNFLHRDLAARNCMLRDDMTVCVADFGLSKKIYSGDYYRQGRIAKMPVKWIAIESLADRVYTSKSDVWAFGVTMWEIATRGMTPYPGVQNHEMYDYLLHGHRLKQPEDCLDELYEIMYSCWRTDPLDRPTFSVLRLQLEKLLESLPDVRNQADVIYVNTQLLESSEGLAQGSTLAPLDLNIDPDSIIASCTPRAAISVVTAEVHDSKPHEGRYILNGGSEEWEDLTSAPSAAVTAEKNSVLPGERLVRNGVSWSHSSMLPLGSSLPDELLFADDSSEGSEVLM
CQKRKYIEIDS [SDAD1_Y580_S575C] showed a phosphorylation enrichment of 0.38. In the case of GRLFAYPDTHR [CAT_Y358], the phosphorylation enrichment is reported as 0.344. Work on PAGSGYPAFLG [ATP6V1A_Y374_D371G_YF] yielded a phosphorylation enrichment of 0.469. Work on QKMFDYLKEKK [RYR2_Y3780_L3778F] yielded a phosphorylation enrichment of 0.403. With CTTIHYNYMCN [TP53_Y234] the phosphorylation enrichment was 0.485. Sequence TKQLTYEEQFL [PIK3C3_Y310_D314Y_YF] has a phosphorylation enrichment of 0.502. MPLTEYLKQIK [CNGB3_Y200_R203Q] was tested, and the phosphorylation enrichment was 0.459. Sequence LVQAEYWHDPI [PPT1_Y185] has a phosphorylation enrichment of 0.591. AFLLLCFNDTH [BMP15_Y235_Y235C] showed a phosphorylation enrichment of 0.484. RGGWVYVLHPT [TRMT61A_Y67] was tested, and the phosphorylation enrichment was 0.493. In the case of LGSVVYAQSKE [KCNQ2_Y226_H228Q], the phosphorylation enrichment is reported as 1.1. Work on NAPNSYGRRPT [CDKN2A_Y44_I49T] yielded a phosphorylation enrichment of 0.593. EASEQYLTKAS [NRCAM_Y739] showed a phosphorylation enrichment of 0.485. For FLAVGYHMPHI [IDS_Y225_K227M], the phosphorylation enrichment was 0.313. With PVQAVYQKVVA [HBB_Y131_A130V] the phosphorylation enrichment was 1.47. In the case of RAFRRYLLKQK [SCN2A_Y1919_YF], the phosphorylation enrichment is reported as 0.971. For CTLTHYKSAVK [ASNS_Y555_R550C], the phosphorylation enrichment was 0.428. Sequence RLLRGYRQDAF [HLA-A_Y137_F133L_YF] has a phosphorylation enrichment of 0.647. In the case of FDNPIYQKTTE [LDLR_Y828_V827I], the phosphorylation enrichment is reported as 2.38. Work on AGTILYHAHLG [ASS1_Y291_D296G] yielded a phosphorylation enrichment of 0.863. Sequence FFLGKYLQEVL [KLB_Y910_YF] has a phosphorylation enrichment of 0.391. EPSVDCCVVKI [CAD_Y735_Y735C] gave a phosphorylation enrichment of 0.376. Sequence SLIDGYFRLTA [JAK2_Y372_YF] has a phosphorylation enrichment of 0.429. Sequence AAAAVYTFLPD [MYORG_Y36_M35V] has a phosphorylation enrichment of 9.47. SSSNPYSTVTV [ACTN2_Y599_M604V] gave a phosphorylation enrichment of 0.464. Sequence CLSHCYFSQIR [MCM3AP_Y873_L870S] has a phosphorylation enrichment of 0.485. LDVGEYCVPRG [BEX1_Y43_A40V] was tested, and the phosphorylation enrichment was 0.568. For TEIGQYGNGLK [MORC2_Y100_Q96E], the phosphorylation enrichment was 0.354. For AATTAYSKPKR [MAP3K7_Y405], the phosphorylation enrichment was 0.302. STGWSYAGVAV [KLHL3_Y577_R575W] gave a phosphorylation enrichment of 0.352. Work on TLMNAYSSRSH [KIF11_Y231] yielded a phosphorylation enrichment of 0.636. For VHSGTYQVMVR [MYBPC3_Y1043_T1046M], the phosphorylation enrichment was 1.27. CTTIHYNFMCD [TP53_Y234_N239D_YF] showed a phosphorylation enrichment of 0.424.
